Assay results reported in publication PMC4847155 (Biochemical Journal, 2016).

Target: Bax (Homo sapiens, UniProt Q07812)
Format: biochemical
Conditions: 100 nM Bax, 10 μM compound or 20 nM cBid/Bim, no membranes, DSS

Sequence of Bax (Q07812 whole entry): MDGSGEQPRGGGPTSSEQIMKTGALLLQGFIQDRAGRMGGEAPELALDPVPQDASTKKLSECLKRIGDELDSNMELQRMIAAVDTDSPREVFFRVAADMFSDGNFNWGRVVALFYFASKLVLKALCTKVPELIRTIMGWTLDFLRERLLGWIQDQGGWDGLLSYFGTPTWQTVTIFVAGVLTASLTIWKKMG

B1: cBid: known Bax activator protein, pro-apoptotic BH3 protein, recombinant (protein, UniProt P55957 61-195, looked up)
BH3-interacting domain death …: GNRSSHSRLGRIEADSESQEDIIRNIARHLAQVGDSMDRSIPPGLVNGLALQLRNTSRSEEDRNRDLATALEQLLQAYPRDMEKEKTMLVLALLLAKKVASHTPSLLRDVFHTTVNFINQNLRTYVRSLARNGMD
modifications: BH3-interacting domain death agonist p15
Question: How did the “formation of dimers and higher-order Bax oligomers in solution” value turn out when B1 was run?
Answer: no effects
